According to publication PMC4081078:

Legend:
TRF2 [1] = molecular target: T1, TRF2 (UniProt Q15554 1-542); assay: pull-down, immunoblot
TRF2 [2] = molecular target: T1, TRF2; assay: EMSA
TRF2ΔB = TRF2ΔB (UniProt Q15554 87-542); assay: EMSA
TRF2 [3] = molecular target: T1, TRF2; assay: EMSA; remark: listed apart in the source
TRF1 = TRF1 (UniProt P54274 1-439); assay: EMSA
TRF2 [4] = molecular target: T1, TRF2; assay: EMSA; remark: listed apart in the source

T1 sequence (Q15554 whole entry): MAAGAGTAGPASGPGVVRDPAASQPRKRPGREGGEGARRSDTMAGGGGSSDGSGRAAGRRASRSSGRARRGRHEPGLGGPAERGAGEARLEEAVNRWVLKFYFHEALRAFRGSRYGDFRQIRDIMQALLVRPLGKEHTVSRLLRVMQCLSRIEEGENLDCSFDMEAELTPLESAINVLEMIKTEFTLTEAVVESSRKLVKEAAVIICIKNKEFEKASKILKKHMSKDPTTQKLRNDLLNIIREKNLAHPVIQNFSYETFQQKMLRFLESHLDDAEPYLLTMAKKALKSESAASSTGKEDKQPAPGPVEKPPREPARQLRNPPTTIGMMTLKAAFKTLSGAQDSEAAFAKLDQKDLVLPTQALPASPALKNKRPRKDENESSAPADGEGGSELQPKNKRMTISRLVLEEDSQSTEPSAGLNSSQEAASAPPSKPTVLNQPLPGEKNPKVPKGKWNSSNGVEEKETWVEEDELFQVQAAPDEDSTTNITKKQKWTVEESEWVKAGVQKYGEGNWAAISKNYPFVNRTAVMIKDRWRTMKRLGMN
Chain of TRF2ΔB (Q15554 87-542, stated change not applied): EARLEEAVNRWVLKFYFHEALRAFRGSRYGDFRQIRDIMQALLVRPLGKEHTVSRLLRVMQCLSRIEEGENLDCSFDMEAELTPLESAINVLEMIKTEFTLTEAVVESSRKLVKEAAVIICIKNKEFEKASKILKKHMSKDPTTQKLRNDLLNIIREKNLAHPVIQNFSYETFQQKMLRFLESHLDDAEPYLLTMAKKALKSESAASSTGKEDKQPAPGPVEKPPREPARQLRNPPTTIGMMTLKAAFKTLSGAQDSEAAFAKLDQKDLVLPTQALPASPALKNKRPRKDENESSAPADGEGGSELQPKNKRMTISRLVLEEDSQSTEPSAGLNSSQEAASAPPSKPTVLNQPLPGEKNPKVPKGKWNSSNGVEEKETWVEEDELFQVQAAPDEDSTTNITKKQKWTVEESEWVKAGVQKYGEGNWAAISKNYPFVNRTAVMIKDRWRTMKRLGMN
Chain of TRF1 (P54274 whole entry): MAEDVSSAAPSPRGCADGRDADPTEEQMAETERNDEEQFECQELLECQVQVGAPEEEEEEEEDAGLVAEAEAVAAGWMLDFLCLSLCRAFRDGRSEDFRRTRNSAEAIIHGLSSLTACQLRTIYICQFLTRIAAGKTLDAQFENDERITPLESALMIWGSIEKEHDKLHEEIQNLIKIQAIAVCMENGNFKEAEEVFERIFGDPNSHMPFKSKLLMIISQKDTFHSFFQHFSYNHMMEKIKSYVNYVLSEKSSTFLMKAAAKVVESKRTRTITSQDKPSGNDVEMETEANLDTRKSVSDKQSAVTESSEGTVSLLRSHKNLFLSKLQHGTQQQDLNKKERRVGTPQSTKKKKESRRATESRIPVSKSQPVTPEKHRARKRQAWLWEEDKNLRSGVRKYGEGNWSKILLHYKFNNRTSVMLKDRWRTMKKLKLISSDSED

B1: b-G68telo/C50telo (dsDNA)
DNA 1: AGCTGAGCATGTCCAGACATGTCCTAGGGTTAGGGTTAGGGTTAGGGTTAGGGTTAGGGTTAGGGTTA
DNA 2: TAACCCTAACCCTAACCCTAACCCTAGGACATGTCTGGACATGCTCAGCT
modifications: phosphorothioate after nt 1 of each strand
Does B1 bind (TRF2 [1])?
Result: binds

B2: *G77telo/C38telo (dsDNA)
DNA 1: AGCTGAGCATGTCCAGACATGTCCTAGGGTTAGGGTTAGGGTTAGGGTTAGGGTTAGGGTTAGGGTTAGGGTTAGGG
DNA 2: TAACCCTAACCCTAGGACATGTCTGGACATGCTCAGCT
modifications: phosphorothioate after nt 1 of each strand
Does B2 bind (TRF2 [2])?
Result: binds

B3: *G77telo/C50telo (dsDNA)
DNA 1: B2 DNA 1
DNA 2: B1 DNA 2
modifications: phosphorothioate after nt 1 of each strand
Does B3 bind (TRF2ΔB)?
Result: binds

Does B3 bind (TRF2 [3])?
Result: binds

B4: *G77telo/C77telo (dsDNA)
DNA 1: B2 DNA 1
DNA 2: CCCTAACCCTAACCCTAACCCTAACCCTAACCCTAACCCTAACCCTAACCCTAGGACATGTCTGGACATGCTCAGCT
modifications: phosphorothioate after nt 1 of each strand
Does B4 bind (TRF1)?
Result: binds

Does B4 bind (TRF2 [4])?
Result: binds

Does B4 bind (TRF2ΔB)?
Result: binds
